Measured values: article PMC8065039 (Communications Biology, 2021)

Experiments:
[1] = molecular target: SARS-CoV-2 Spike-Trimer protein (Shuimu BioSciences Ltd.) (SARS-CoV-2, Wuhan-Hu-1 assumed, UniProt P0DTC2); assay: BLI; details: both partners purified
[2] = molecular target: recombinant SARS-CoV-2 Spike RBD (catalogue number not stated for this experiment) (SARS-CoV-2, UniProt P0DTC2); assay: ELISA; details: both partners purified
[3] = molecular target: recombinant SARS-CoV-2 Spike S1 + S2 protein (40589-V08B1, Sino Biological) (SARS-CoV-2, Wuhan-1 (MN908947), UniProt P0DTC2); assay: ELISA; details: both partners purified
[4] = molecular target: extracellular domain of SARS-CoV-2 S protein (S-ECD), 1-1208 aa, with two proline substitutions, GSAS … (SARS-CoV-2, Wuhan-Hu-1, UniProt P0DTC2, proline substitution at residue 986 | proline substitution at residue 987 | …); assay: cryo-EM structure; details: both partners purified
[5] = molecular target: SARS-CoV-2 Spike protein on transfected CHO-K1 cells (GenScript RD00819) (SARS-CoV-2, UniProt P0DTC2); assay: cell-based or functional assay

B1: CA521^FALA (human IgG4 monoclonal antibody with the F234A/L235A mutation) (antibody, V domains shown)
VH: EVQLQQWGAGLLKPSETLSLTCAVYGGSFSGYYWSWIRQPPGKGLEWIGEVNHSGSTNYNPSLKSRVTISVDTSKNQLSLKLNSVTAADTAVYYCARGNTMVRGVIIPFEYWDKGTLVTVSS
VL: EIVLTQSPATLSLSPGERATLSCRASQSVSSYLAWYQQKPGQAPRLLIYDASNRATGIPARFSGSGSGTDFTLTISSLEPEDFAVYYCQQRSNWPLTFGGGTKVEIK
notes: also called CA521^FALA IgG; full-length CA521^FALA IgG; source: Expi-CHO Expression system, purified (protein A, Q FF, Capto S ImpAct)
B1 gave a Kd [1] of less than 0.001 nM, an IC50 [2] of 0.343 nM and an EC50 [3] of 0.014 nM. The binding result [4] was “binds” and the “IC50 of inhibition of SARS-CoV-2 pseudovirus transduction into Huh-7 cells” value [5] was 0.121 nM.
